The values that follow come from patent publication US20210030857A1 (NGM BIOPHARMACEUTICALS, published 2021).

In assay [1] the target is T1, human beta klotho / human FGFR1c receptor complex on cells (human, UniProt Q86Z14 1-1044; P11362 22-822). Description: cell-based or functional assay.
In assay [2] the target is T1, human beta klotho / human FGFR1c …. Kind of assay: cell-based or functional assay. This is another data set of the same source.
The target of assay [3] is T2, human beta klotho expressed on cells (human, UniProt Q86Z14 1-1044).
T2 construct: also called HuKLB overexpressing cells; Human KLB
T2 sequence: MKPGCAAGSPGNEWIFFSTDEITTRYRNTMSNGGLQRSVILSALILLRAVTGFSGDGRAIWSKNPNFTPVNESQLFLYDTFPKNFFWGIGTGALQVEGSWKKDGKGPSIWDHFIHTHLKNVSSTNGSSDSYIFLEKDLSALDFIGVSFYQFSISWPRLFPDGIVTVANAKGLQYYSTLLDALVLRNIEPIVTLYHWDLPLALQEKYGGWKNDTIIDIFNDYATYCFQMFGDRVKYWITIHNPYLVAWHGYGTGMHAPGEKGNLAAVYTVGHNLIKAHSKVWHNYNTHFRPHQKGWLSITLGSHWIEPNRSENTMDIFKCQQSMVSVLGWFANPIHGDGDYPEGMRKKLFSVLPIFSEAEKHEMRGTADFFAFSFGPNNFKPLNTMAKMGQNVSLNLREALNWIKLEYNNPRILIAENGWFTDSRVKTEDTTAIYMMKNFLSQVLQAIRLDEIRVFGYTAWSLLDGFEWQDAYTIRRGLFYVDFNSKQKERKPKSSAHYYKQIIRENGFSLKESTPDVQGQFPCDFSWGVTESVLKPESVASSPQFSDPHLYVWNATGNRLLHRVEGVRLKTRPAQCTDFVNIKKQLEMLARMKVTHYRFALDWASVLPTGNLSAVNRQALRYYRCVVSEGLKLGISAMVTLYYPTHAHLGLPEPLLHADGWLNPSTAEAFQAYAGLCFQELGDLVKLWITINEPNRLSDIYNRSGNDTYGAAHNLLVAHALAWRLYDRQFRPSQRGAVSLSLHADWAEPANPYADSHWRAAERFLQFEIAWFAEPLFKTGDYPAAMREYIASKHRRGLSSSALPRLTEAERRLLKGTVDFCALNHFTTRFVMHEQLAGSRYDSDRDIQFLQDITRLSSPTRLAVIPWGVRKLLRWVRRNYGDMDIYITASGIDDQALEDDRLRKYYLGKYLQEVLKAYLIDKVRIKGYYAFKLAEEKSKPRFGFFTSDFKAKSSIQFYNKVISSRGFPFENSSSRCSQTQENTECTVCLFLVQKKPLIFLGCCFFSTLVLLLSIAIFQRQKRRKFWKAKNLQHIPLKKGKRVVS
Description: FACS competition on HuKLB-overexpressing cells; row antibody unlabelled; competitor 5H23-Alexa647 (labelled, EC10); MFI of the label. The protocol: For example, for competition binding assays by FACS analysis, antibody standards were prepared that were conjugated to a fluorochrome using either A488 or A647 antibody labeling kit (Invitrogen) following manufacturer's instructions. A dose titration of the conjugated antibody standard was evaluated using HuKLB overexpressing cells. The plateau of the maximal signal of antibody binding is EC=100 and the background signal is EC=0. Competition by FACS against the fluorochrome labeled antibody was performed by pre-incubating HuKLB overexpressing cells with hybridoma supernatants for 15 minutes at room temperature. Without washing, an EC=10 concentration of A488 or A647 labelled antibody standard was added. EC=10 for an individual antibody was determined by 10% of signal using the maximum signal as (100%) and background signal as (0%). After 30 minutes at 4° C., cells are washed and analyzed by FACS. […] A partial competing antibody is one sample that show signal between labelled antibody alone and background. Antibodies that show complete competition against the same standard antibody are considered to be in the same bin.
Representative results are shown in Table 12 below reported as mean fluorescence intensity (MFI).

Assay [4] has as its target cynomolgus beta klotho / human FGFR1c receptor complex on cells (cynomolgus monkey (Macaca …)). Kind of assay: cell-based or functional assay.

cynomolgus beta klotho / human FGFR1c receptor complex on cells (cynomolgus monkey (Macaca …)), sequence (chain, as listed by the source limits assumed, chain 1 of 2): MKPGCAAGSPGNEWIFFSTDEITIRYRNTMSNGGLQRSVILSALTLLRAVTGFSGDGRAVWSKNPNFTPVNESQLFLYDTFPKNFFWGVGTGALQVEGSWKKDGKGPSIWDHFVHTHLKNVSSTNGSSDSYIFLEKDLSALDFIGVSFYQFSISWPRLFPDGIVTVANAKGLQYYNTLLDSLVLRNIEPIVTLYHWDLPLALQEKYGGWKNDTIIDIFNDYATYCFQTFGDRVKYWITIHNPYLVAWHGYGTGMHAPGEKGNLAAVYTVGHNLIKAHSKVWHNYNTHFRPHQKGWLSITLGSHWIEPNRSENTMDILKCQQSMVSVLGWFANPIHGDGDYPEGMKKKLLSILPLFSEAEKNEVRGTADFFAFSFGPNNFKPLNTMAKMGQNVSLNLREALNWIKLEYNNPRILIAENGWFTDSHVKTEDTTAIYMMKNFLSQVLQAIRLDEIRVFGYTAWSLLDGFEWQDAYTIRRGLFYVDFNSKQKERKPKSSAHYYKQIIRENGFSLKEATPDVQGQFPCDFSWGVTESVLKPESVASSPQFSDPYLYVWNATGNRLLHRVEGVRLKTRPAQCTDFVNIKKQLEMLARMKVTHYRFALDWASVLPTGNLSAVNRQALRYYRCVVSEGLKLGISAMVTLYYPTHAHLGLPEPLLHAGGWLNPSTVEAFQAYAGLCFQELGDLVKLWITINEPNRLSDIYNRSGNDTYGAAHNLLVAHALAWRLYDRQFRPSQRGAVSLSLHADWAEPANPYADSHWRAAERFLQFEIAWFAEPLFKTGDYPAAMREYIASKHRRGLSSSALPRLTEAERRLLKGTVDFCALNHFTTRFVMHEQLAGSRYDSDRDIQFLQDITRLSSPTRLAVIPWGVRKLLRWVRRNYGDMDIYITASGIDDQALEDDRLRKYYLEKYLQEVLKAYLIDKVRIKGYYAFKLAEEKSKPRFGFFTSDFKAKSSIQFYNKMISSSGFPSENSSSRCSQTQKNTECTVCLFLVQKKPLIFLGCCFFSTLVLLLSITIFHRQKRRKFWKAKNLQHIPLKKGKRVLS
cynomolgus beta klotho / human FGFR1c receptor complex on cells (cynomolgus monkey (Macaca …)), sequence (chain, as listed by the source limits assumed, chain 2 of 2): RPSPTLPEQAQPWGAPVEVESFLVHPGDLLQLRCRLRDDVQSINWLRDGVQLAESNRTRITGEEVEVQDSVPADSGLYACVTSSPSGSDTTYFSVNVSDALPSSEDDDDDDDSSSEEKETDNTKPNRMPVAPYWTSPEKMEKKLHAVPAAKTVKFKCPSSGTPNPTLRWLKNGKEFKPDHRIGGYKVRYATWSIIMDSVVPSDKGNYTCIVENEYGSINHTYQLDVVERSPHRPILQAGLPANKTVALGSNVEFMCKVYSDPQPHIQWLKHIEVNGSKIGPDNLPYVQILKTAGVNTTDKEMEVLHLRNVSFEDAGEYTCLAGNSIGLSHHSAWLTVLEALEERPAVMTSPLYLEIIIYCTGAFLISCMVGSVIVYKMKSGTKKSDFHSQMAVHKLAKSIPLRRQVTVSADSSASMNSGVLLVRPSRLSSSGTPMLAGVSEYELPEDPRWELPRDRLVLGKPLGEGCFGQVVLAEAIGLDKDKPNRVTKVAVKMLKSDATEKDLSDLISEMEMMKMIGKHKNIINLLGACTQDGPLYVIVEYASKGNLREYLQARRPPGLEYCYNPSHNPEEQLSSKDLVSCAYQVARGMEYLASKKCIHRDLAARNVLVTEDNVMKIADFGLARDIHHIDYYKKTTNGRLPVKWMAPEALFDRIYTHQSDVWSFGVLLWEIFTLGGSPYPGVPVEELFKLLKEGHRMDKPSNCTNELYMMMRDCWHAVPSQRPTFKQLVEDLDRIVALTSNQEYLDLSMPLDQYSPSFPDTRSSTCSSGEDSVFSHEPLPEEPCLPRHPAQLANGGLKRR

B1: antibody 3N20 (antibody, V domains shown)
VH: QVQLQESGAELARPGASVKLSCKVSGYIFTNYGISWVKQRTGQGLEWIGEIYPRSGNTYYNEKFKGKATLTADMSSSTAYMDLRSLTSEDSAVYFCARHWDGVLDYFDYWGQGTSLTVSS
VL: DIVMTQSPSSLSVSAGEKVTMSCKSSQSLLNSGNQKNYLAWYQQKPGQPPKLLIYGASTRESGVPDRFTGSGSGTDFTLTISSVQAEDLAVYYCLNDHSYPFTFGAGTKLELK
notes: Murine monoclonal antibody
For B1, the “hAdip pERK assay EC50, Experiment - B” value in assay [1] was more than 67 nM. In assay [2], the “HEK293 huKLB/R1c reporter assay EC50, Experiment - A” value came to 0.527 nM. Also, in assay [3], the “Mean Florescence Intensity (MFI)” value stood at 2.4 MFI. Further, in assay [4], the “HEK293 cynoKLB/R1c reporter assay EC50, Experiment - A” value came out at 2.46 nM and the “HEK293 cynoKLB/R1c reporter assay EC50, Experiment - B” value is more than 10 nM.

B2: antibody 5F7 (antibody, V domains shown)
VH: QVQPQESGPELVKPGALVKISCKASGYTFTRYDINWVKQRPGQGLEWIGWIYPGDISTKYNEKFKGKATLTADKSSSTAYMQLNSLTSENSAVYFCARSDYYGSRSFVYWGQGTLVTVSA
VL: DIVLTQSPASLAVSLGQRATISCRASKSVSTSGYSYMHWYQQKPGQPPKLLIYLASNLESGVPARFSGSGSGTDFTLNIHPVEEEDAATYYCQHSRELPYTFGGGTKVEIK
notes: Murine monoclonal antibody
As for B2, the “hAdip pERK assay EC50, Experiment - B” value in assay [1] is more than 67 nM. Moreover, the “Mean Florescence Intensity (MFI)” value in assay [3] worked out at 2.3 MFI.

B3: antibody 5H23 (antibody, V domains shown)
VH: QVQLQQSGPELVKPGALVKISCKASGYTFTSYDINWVKQRPGQGLEWIGWIYPGDGSTKYNEKFKGKATLTADKSSRTAYMQLSSLTSENSAVYFCARSDYYGSRSFAYWGQGTLVTVSA
VL: DIVLTQSPASLAVSLGQRATISCRASKSVSTSGYVYMHWNQQKPGQPPKLLIYLASYLESGVPARFSGSGSGTDFTLNIHPVEEEDAAIYYCQHSRDLTFPFGGGTKLEIK
notes: Murine monoclonal antibody from hybridoma; also called 5H23-Alexa647 (labelled form)
For B3, the “hAdip pERK assay EC50, Experiment - B” value in assay [1] turned out to be 1.66 nM. In addition, in assay [2], the “HEK293 huKLB/R1c reporter assay EC50, Experiment - A” value was determined as 0.102 nM and the “HEK293 huKLB/R1c reporter assay EC50, Experiment - B” value stood at 0.0342 nM. In addition, the “Mean Florescence Intensity (MFI)” value in assay [3] worked out at 2.3 MFI. Also, in assay [4], the “HEK293 cynoKLB/R1c reporter assay EC50, Experiment - A” value was 0.165 nM and the “HEK293 cynoKLB/R1c reporter assay EC50, Experiment - B” value was determined as 0.218 nM.

B4: antibody 2L12 (antibody, V domains shown)
VH: QVQLQQSGPELVKPGALVKISCKASGYTFTRYDINWVKKRPGQGLEWIGWIYPGDDSTKYNEKFKGKATLTADKSSSTAYMQLSSLTSENSAVYFCARSDYYGSRSFVYWGQGTLVTVSA
VL: DIVLTQSPASLPVSLGQRATISCRASKSVSTSGYSYLHWYQQKPGQPPKLLIYLASNLESGVPARFSGSGSGTDFTLNIHPVEEEDAATYYCQHSGELPYTFGGGTKLEIK
notes: Murine monoclonal antibody
Take B4: the “hAdip pERK assay EC50, Experiment - B” value in assay [1] came to 1.23 nM. Further, the “HEK293 huKLB/R1c reporter assay EC50, Experiment - A” value in assay [2] came to 0.373 nM. The “Mean Florescence Intensity (MFI)” value in assay [3] is 3.1 MFI. Moreover, in assay [4], the “HEK293 cynoKLB/R1c reporter assay EC50, Experiment - A” value was determined as 0.26 nM and the “HEK293 cynoKLB/R1c reporter assay EC50, Experiment - B” value amounted to 0.41 nM.

B5: antibody 4P5 (antibody, V domains shown)
VH: QVQLQQSGPELVKPGALVKISCKASGYTFTRYDINWVKKRPGQGLEWIGWIYPGDDSTKYNEKFKGKATLTADKSSSTAYMQLSSLTSENSAVYFCARSDYYGSRSFVYWGQGTLVTVSA
VL: DILLTQSPASLAVSLGQRATISCRASKSVSTSGYSYMHWYQQKPGQPPKLLIYLASNLESGVPARFSGRGSGTDFTLNIHPVEEEDAATYYCHHSGELPYTFGGGTKLEIK
notes: Murine monoclonal antibody
Regarding B5, in assay [1], the “hAdip pERK assay EC50, Experiment - B” value stood at 0.89 nM. For the same molecule, in assay [2], the “HEK293 huKLB/R1c reporter assay EC50, Experiment - A” value came out at 0.6 nM and the “HEK293 huKLB/R1c reporter assay EC50, Experiment - B” value is 0.0783 nM. Also, the “Mean Florescence Intensity (MFI)” value in assay [3] amounted to 2.4 MFI. Also, in assay [4], the “HEK293 cynoKLB/R1c reporter assay EC50, Experiment - A” value stood at 0.347 nM and the “HEK293 cynoKLB/R1c reporter assay EC50, Experiment - B” value stood at 0.465 nM.

B6: antibody 3L3 (antibody, V domains shown)
VH: QVQPQESGPELVKPGTLVKISCKASGYTFTSYDINWVKQRPGQGLEWIGWIYPGDGSPKYDEKFKGKATLTADKSSSTAYMQLSSLTSENSAVYFCARSDYYGSRSFVYWGQGTLVTVSA
VL: DIVLTQSPASLAVSLGQRATISCRASKSVSTSGYSYVHWYQQKPGQPPKLLIYLASNLESGVPARFSGRGSGTDFTLNIHPVEEEDAATYYCQHSGELPYTFGGGTKLEIK
notes: Murine monoclonal antibody
In the case of B6, in assay [1], the “hAdip pERK assay EC50, Experiment - B” value is approximately 30 nM. Moreover, the “HEK293 huKLB/R1c reporter assay EC50, Experiment - A” value in assay [2] was 0.773 nM. Further, in assay [3], the “Mean Florescence Intensity (MFI)” value came out at 4.2 MFI. For the same molecule, in assay [4], the “HEK293 cynoKLB/R1c reporter assay EC50, Experiment - A” value came to 3.58 nM and the “HEK293 cynoKLB/R1c reporter assay EC50, Experiment - B” value was found to be 1.67 nM.

B7: antibody 5C23 (antibody, V domains shown)
VH: QVQPQESGPELVKPGALVKISCKASGYTFTRYDINWVKKRPGQGLEWIGWIYPGDGSTKYNEKFEGKATLTADKSSSTAYMQLSSLTSENSAVYFCARSDYYGSRSFVYWGQGTLVTVSA
VL: DIVLTQSPDSLTVSLGQRATISCRASKSVSTSGYSYMHWYQQKPGQPPKLLIYLASNLESGVPARFSGSGSGTDFTLNIHPVEEEDAATYYCQHSRELPYTFGGGTKLEIK
notes: Murine monoclonal antibody
Regarding B7, in assay [1], the “hAdip pERK assay EC50, Experiment - B” value is more than 67 nM. The “Mean Florescence Intensity (MFI)” value in assay [3] was determined as 2.4 MFI.

B8: antibody 1D19 (antibody, V domains shown)
VH: QVQPQESGPELVKPGALVKISCKASGYTFTRYDINWMKQRPGQGLEWIGWIYPGDSSTKFNENFKDKATLTADKSSSTAYMQLSSLTSENSTVYFCARSDYYGSRSFTYWGQGTLVTVSA
VL: DIVLTQSPASLAVSLGQRATISCRASKSVSTSGYSYMHWYQQKPGQPPKLLIYLASNLESGVPARFSGSGSGTDFTLNIHPVEEEDAATYYCQHSRELPYTFGGGTKLEIK
notes: Murine monoclonal antibody
For the molecule B8, the “hAdip pERK assay EC50, Experiment - B” value in assay [1] is more than 67 nM. For the same molecule, the “HEK293 huKLB/R1c reporter assay EC50, Experiment - A” value in assay [2] stood at 0.62 nM. Moreover, the “Mean Florescence Intensity (MFI)” value in assay [3] stood at 2.5 MFI. Also, the “HEK293 cynoKLB/R1c reporter assay EC50, Experiment - B” value in assay [4] stood at 0.954 nM.

B9: antibody 1C17 (antibody, V domains shown)
VH: QVQLQESGPGLVKPSQSLSLTCSVTGYSITSGYYWNWIRQFPGNKLEWMGYINYDGNSNYTPSLKNRISITRDTSKNQFFLKLNSVTPEDTATYYCARKGAYYSNYDSFDVWGTGTTVTVSS
VL: DIKMTQSPSSMYASLGERVTITCKASQDINSYLSWVQQKPGKSPKTLIYRANRLVDGVPSRFSGSGSGQDYSLTISSLEYEDMGIYYCLQYDEFPFTFGSGTKLEIK
notes: Murine monoclonal antibody
In the case of B9, in assay [1], the “hAdip pERK assay EC50, Experiment - B” value is more than 67 nM. The “Mean Florescence Intensity (MFI)” value in assay [3] stood at 2.4 MFI.
